Results published in patent US20200054764A1, “MEDICAL USE OF ANTI-C MET ANTIBODY-CYTOTOXIC DRUG CONJUGATE” (priority 2016, published 2020).

What was measured:
[1] = target: T1, human c-Met-His (Homo sapiens, UniProt P08581); assay: ELISA binding of c-Met antibody to c-Met antigen; conditions: humanized antibody
T1 construct: His tag (6xHis) (C); made in house; host or cells: 293F cells (Invitrogen, Cat # R790-07); vector pEE6.4; c-Met gene template origene RC217003
Experimental: This experiment uses enzyme linked immunosorbent assay to detect affinity of c-Met antibody (including supermatant of hybridonma or recombinant expressed monoclonal antibodies) to c-Met antigen in vitro.
Experimental procedures: Coating buffer (PBS; Hyclone, Cat No.: SH30256.01B) was used to dilute antigen (human c-Met-His, example 1) to 2 μg/mL, which was added to a 96-well microplate at 100 μL/well (Costar 9018, Cat No.:03113024) and incubated overnight at 4° C. […] The plate was read with plate reader at 450 nm.
Murine anti-human c-Met monoclonal cell lines were obtained by immunizing mice, fusion of spleen cells, and screening of hybridomas. […] After the first booster immunization, mice serum was collected during 7 to 10 days after each booster immunization, and the titer was detected by ELISA (Methods were described in Example 2).
After immunization, mice with a serum titer higher than 1:10^5 were selected for cell fusion. Mouse B-cells and myeloma cells (SP2/0, ATCC number:CRL-1581™) were prepared respectively in aseptic conditions and counted. […] The next day, positive clones were detected by ELISA (see Methods in Example 2).

[2] = test system: MKN45 cells expressing c-Met; assay: Endocytosis of anti c-Met antibody in MKN45 cells (FACS); type: cell-based, human; conditions: MKN45, 10 μg/mL antibody
Source text: Antibodies of the invention bind to human c-Met, and have very good in vitro activity and good activity in inhibiting tumor activity in vivo. […] In order to detect whether the antibodies would be internalized into the cell along with human c-Met once bound to human c-Met, human gastric cancer cell line MKN45 (JCRB, Cat No.: JCRB0254) expressing c-Met was used for evaluation.
MKN45 cells were resuspended to 10,000,000 cells/mL in RPMI 1640 medium (GIBCO, Cat No.: 11835-030), which contains 10% (v/v) FBS (GIBCO, Cat No.: 10099-141) and penicillin/streptomycin (GIBCO, Cat No.: 15070-063). 2 mL resuspended MKN45 cells were added to a 96-well microtiter plate with 250,000 cells/well, and 10 μg/mL of c-Met antibody was added to the corresponding wells and the final volume was 100 μL. The plate was incubated at 4° C. for 1 hour. FACS buffer (phosphate buffer solution including 2.5% fetal bovine serum; Hyclone, Cat: SH30256.01B) was added and the plate was centrifuged at 4° C., 1300 rpm for 4 minutes. The supernatant was discarded and this procedure was repeated three times. 100 μL secondary antibody solution (Fluorescence labeled goat anti mouse secondary antibodies at 1:200 dilution, Biolegend, Cat #405307; Fluorescence labeled anti-human secondary antibody at 1:30 dilution, Biolegend, Cat #409304) was added into each well. The plate was incubated at 4° C. for 1 hour. FACS buffer was added and the plate was centrifuged at 4° C., 1300 rpm for 4 minutes. The supernatant was discarded and this procedure was repeated three times. Complete cell culture medium (RPMI 1640 medium with 10% FBS) was added and was incubated at 37° C. in 5% CO2 for 0, 0.5, 1, 2, 4 hours. 5 μL 7-AAD (Biolegend, Cat:420403) was added to 100 μL FACS buffer which was added to each well, and the plate was incubated at 4° C. for 30 minutes. FACS buffer was added and the plate was centrifuged at 4° C., 1300 rpm for 4 minutes. The supernatant was discarded and this procedure was repeated three times. 200 μL Stripping buffer (0.05 M glycine, pH 3.0; 0.1 M NaCl, mixed at 1:1 (v/v)) was added to each well. The cells were resuspended and were incubated for 7 minutes at room temperature. The cells were centrifuged at room temperature at 1300 rpm for 4 minutes, and the supernatant was discarded. 200 μL neutralizing wash buffer (0.15M trihydroxymethyl aminomethane, pH 7.4) was added to each well, the cells were resuspended and centrifuged at room temperature at 1300 rpm for 4 minutes, and the supernatant was discarded. 200 μL FACS buffer was added and the cells were resuspended. The prepared samples were detected by flow cytometry (BD FACS Calibur).
Endocytosis of c-Met antibody %=(intensity of fluorescence at each time point−mean intensity of fluorescence at time 0)/mean intensity of fluorescence at time 0.

T1 sequence (P08581 with tags, fused parts or gaps limits assumed): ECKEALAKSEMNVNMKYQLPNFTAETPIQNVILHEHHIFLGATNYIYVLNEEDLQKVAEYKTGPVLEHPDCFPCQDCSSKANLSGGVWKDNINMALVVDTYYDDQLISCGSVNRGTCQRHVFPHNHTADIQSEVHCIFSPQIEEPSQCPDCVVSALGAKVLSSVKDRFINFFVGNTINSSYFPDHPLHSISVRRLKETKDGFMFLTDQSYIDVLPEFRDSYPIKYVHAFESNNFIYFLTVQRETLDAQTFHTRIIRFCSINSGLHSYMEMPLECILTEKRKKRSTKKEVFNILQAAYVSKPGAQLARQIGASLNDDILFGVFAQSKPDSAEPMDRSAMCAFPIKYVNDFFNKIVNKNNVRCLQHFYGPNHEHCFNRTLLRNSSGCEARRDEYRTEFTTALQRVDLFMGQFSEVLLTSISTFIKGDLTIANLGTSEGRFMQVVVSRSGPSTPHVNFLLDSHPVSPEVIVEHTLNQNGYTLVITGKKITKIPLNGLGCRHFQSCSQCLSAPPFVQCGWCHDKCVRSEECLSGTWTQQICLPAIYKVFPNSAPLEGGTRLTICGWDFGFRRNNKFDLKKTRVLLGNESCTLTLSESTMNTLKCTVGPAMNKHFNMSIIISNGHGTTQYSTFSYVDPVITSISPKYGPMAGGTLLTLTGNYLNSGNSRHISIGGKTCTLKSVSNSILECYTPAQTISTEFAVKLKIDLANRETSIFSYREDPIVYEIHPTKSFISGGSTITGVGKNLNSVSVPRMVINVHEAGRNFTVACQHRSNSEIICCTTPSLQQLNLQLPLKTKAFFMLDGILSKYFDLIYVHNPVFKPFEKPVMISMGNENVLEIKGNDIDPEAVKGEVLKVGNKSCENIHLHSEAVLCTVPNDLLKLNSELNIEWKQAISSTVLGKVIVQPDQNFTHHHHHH

B1: Ab-9 (antibody)
heavy: QVTLKESGPVLVKPTETLTLTCTVSGFSLPNYGVHWVRQPPGKALEWLAVIWSGGSTNYAAAFVSRLRISKDTSKSQVVFTMNNMDPVDTATYYCARNHDNPYNYAMDYWGQGTTVTVSSASTKGPSVFPLAPCSRSTSESTAALGCLVKDYFPEPVTVSWNSGALTSGVHTFPAVLQSSGLYSLSSVVTVPSSNFGTQTYTCNVDHKPSNTKVDKTVERKCCVECPPCPAPPVAGPSVFLFPPKPKDTLMISRTPEVTCVVVDVSHEDPEVQFNWYVDGVEVHNAKTKPREEQFNSTFRVVSVLTVVHQDWLNGKEYKCKVSNKGLPAPIEKTISKTKGQPREPQVYTLPPSREEMTKNQVSLTCLVKGFYPSDIAVEWESNGQPENNYKTTPPMLDSDGSFFLYSKLTVDKSRWQQGNVFSCSVMHEALHNHYTQKSLSLSPGK
light: DIVLTQSPASLAVSPGQRATITCRANKSVSTSTYNYLHWYQQKPGQPPKLLIYLASNLASGVPARFSGSGSGTDFTLTINPVEANDTANYYCQHSRDLPPTFGQGTKLEIKRTVAAPSVFIFPPSDEQLKSGTASVVCLLNNFYPREAKVQWKVDNALQSGNSQESVTEQDSKDSTYSLSSTLTLSKADYEKHKVYACEVTHQGLSSPVTKSFNRGEC
How did the EC50 [1] turn out when B1 was run?
The EC50 was 0.13 nM.

And the endocytosis % ([2]; 0 h)?
Its endocytosis % is 0%.

What about the endocytosis % ([2]; 0.5 h) of the same molecule?
The endocytosis % was 26%.

What about the endocytosis % ([2]; 1 h) of the same molecule?
Its endocytosis % is 32%.

And the endocytosis % ([2]; 2 h)?
Its endocytosis % is 32%.

And the endocytosis % ([2]; 4 h)?
The endocytosis % was 31%.
